Experimental data reported in article PMC4820223.

Legend:
[1] = target: UbL-mCherry-GAI(1-92) proteasome adaptor (UniProt Q9LQT8)
[2] = target: UbL-mCherry-FRB-MBP proteasome adaptor

Row | Substance | depletion of the GFP target (GFP fluorescence by flow cytometry) in HEK293 cells after 24 h with 10 to 50 uM and higher GA3-AM; dimerisation bridged by gibberellin GA3 [1] [%] | depletion of the GFP target (GFP fluorescence by flow cytometry) in HEK293 cells after 4 h with 1, 2 or 5 uM rapalog; dimerisation bridged by rapalog [2] [%]
1 | GID1-GFP-tail target protein | 80 | 
2 | FKBP-GFP-tail target protein |  | 90
